Results: PMC6488372 (Molecular microbiology, 2019)

Molecular target: E. coli His-α ΔCTD (His-α Δ235, α 1–234) (E. coli, UniProt P0A7Z4 1-234)
Assay: BLI

B1: LuxR (native, wild-type), purified (natural protein)
chain: MDSIAKRPRTRLSPLKRKQQLMEIALEVFARRGIGRGGHADIAEIAQVSVATVFNYFPTREDLVDEVLNHVVRQFSNFLSDNIDLDIHARENIANITNAMIELVSQDCHWLKVWFEWSASTRDEVWPLFVTTNRTNQLLVQNMFIKAIERGEVCDQHEPEHLANLFHGICYSIFVQANRSKSEAELTNLVSAYLDMLCIYNREHH
B1 showed a Kd of 256 nM.
